The text below walks through data of paper PMC13274938.

The test has as its target Q23-APEX-GT2 trimer (Q23-APEX-GT1-T132R-S158T) (HIV-1 (Q23.17)). The experiment in a line: cryo-EM structure.

B1: CH70-Apex2.01 Fab (Fab, V domains shown)
VH: QVQLQESGPGLVKPSETLSLTCAVSGGSISDDYYWTWIRQPPGKGLEWIGYIYGDGGDTKYNPSLKNRVTISIDTSKNHFSLKVNSMTGADTAVYYCAREGRGQFWYDEDYGQFYVPGGLDSWGQGVVVTVSS
VL: DIQMTQTPLSLSVSPGEPASISCRSSQSLLHTDGYDYLDWYLQKPGQSPQLLIYGGSDRPSGVPDRFSGSGSGTDFTLKISRVEAEDVGVYYCMQHKALPRTFGQGTKVEIK
Molecule B1 registered a stoichiometry N (Fab per trimer) of 1.
